Source: patent publication US20140242075A1

Tests used:
C1q (human) [1] = molecular target: C1q (human) (UniProt P02745); assay: cell-based or functional assay
C1q (human) [2] = molecular target: C1q (human) (UniProt P02745); assay: FACS, C1q titrated on Daudi cells opsonized with the mix; Exp. 6
C1q (human) [3] = molecular target: C1q (human) (UniProt P02745); assay: C1q binding ELISA: antibody coated in a dilution series (0.58-10 µg/mL), 3% pooled human serum as source of C1q, rabbit anti-human C1q and swine anti-rabbit IgG-HRP, ABTS, OD 405 nm
C1q (human) [4] = molecular target: C1q (human) (UniProt P02745); assay: FACS, C1q titrated on mAb-opsonized Daudi cells; Exp. 10
C1q (human) [5] = molecular target: C1q (human) (UniProt P02745); assay: FACS, C1q titrated on mAb-opsonized Raji cells; Exp. 3
C1q (human) [6] = molecular target: C1q (human) (UniProt P02745); assay: C1q ELISA, coated antibody series + 3% human serum; mean
C1q (human) [7] = molecular target: C1q (human) (UniProt P02745); assay: FACS, C1q titrated on mAb-opsonized Daudi cells; Exp. 11
C1q (human) [8] = molecular target: C1q (human) (UniProt P02745); assay: FACS, C1q titrated on mAb-opsonized Daudi cells; Exp. 1
C1q (human) [9] = molecular target: C1q (human) (UniProt P02745); assay: FACS, C1q titrated on mAb-opsonized Raji cells; Exp. 1

C1q (human), sequence (P02745 23-245 limits assumed, chain 1 of 3): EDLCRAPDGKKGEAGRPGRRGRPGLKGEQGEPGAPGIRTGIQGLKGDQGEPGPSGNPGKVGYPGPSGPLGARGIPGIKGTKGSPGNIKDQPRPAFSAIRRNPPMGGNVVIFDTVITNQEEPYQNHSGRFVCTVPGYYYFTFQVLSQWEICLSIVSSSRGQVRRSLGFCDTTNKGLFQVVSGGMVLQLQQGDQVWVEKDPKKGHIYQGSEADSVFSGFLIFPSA
C1q (human), sequence (P02746 28-253 limits assumed, chain 2 of 3, further chain): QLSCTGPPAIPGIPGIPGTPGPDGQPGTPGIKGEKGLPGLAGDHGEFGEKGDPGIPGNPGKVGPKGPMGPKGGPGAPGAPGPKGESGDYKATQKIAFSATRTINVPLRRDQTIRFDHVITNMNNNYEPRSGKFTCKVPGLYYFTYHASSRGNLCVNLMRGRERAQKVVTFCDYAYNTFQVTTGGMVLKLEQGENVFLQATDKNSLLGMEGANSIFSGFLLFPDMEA
C1q (human), sequence (P02747 29-245 limits assumed, chain 3 of 3, further chain): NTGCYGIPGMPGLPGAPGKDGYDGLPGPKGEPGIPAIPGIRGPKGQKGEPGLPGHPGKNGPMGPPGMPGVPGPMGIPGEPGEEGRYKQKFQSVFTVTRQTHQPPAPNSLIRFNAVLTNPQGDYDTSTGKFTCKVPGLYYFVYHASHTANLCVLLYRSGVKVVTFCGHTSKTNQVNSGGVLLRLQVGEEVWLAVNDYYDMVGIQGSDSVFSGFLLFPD
IgG1-7D8-E345R (antibody), sequence (heavy, form in doubt): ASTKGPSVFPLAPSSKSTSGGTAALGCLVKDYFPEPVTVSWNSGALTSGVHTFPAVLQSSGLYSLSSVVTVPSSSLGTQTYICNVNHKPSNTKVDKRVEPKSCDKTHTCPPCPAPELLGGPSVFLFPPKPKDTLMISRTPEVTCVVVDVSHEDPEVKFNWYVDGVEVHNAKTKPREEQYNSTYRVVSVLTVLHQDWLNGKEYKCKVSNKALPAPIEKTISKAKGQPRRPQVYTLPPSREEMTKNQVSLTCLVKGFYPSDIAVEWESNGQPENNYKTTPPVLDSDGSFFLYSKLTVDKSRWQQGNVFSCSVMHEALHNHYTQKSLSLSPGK

Substance | CH50 for C1q efficacy in a CDC assay on Raji cells (C1q (human) [1]) | other results
7D8-K439E + 7D8-S440K mix | 1.33 µg/mL | Kd (C1q (human) [2]): 3.6 nM
IgG1-7D8-E345R (antibody) | 0.03 µg/mL | –
IgG1-7D8-E382R (antibody) | 0.77 µg/mL | –
IgG1-7D8-G385D (antibody) | 22.5 µg/mL | –
IgG1-7D8-H310K (antibody) | > 30 µg/mL | –
IgG1-7D8-H435R (antibody) | 0.24 µg/mL | EC50 (read off the curve) (C1q (human) [3]): 2 µg/mL
IgG1-7D8-I253A (antibody) | 11.2 µg/mL | –
IgG1-7D8-I253D/H433A (antibody) | > 30 µg/mL | –
IgG1-7D8-I253Y (antibody) | 16.1 µg/mL | –
IgG1-7D8-K439E (antibody) | > 30 µg/mL | –
IgG1-7D8-K439E/S440K (antibody) | 0.09 µg/mL | –
IgG1-7D8-N434A (antibody) | 21.2 µg/mL | –
IgG1-7D8-Q438D (antibody) | > 30 µg/mL | –
IgG1-7D8-S440K (antibody) | > 30 µg/mL | –

Further lines, with some results ahead:

CH50 for C1q efficacy in a CDC assay on Raji cells (C1q (human) [1]) | Substance | other results
> 30 µg/mL | IgG1-7D8-H433A (antibody) | –
> 30 µg/mL | IgG1-7D8-H433D (antibody) | –
0.16 µg/mL | IgG1-7D8-H433R (antibody) | –
0.96 µg/mL | IgG1-7D8-H435A (antibody) | –
> 30 µg/mL | IgG1-7D8-I253D (antibody) | –
> 30 µg/mL | IgG1-7D8-K322A (antibody) | EC50 calculated from the CDC assay on Daudi cells (antibody concentration resulting in 50% lysis) (C1q (human) [1]): > 30 µg/mL
0.63 µg/mL | IgG1-7D8-Q311A (antibody) | –
0.49 µg/mL | IgG1-7D8-WT (antibody) | Kd (C1q (human) [4]): 11.8 nM; Kd (C1q (human) [5]): 10.9 nM; EC50 (C1q (human) [6]): 2.05 µg/mL; Kd (C1q (human) [7]): 13.3 nM; Kd (C1q (human) [8]): 7.7 nM; Kd (C1q (human) [9]): 4.8 nM
> 30 µg/mL | IgG1-7D8-Y436D (antibody) | –
